Results published in PMC9943660.
Substitutions are numbered along the chain they refer to.

Key:
Test in all cases: SPR
[1] = target: T1, MutS WT (Escherichia coli, UniProt P23909 1-853)
T1 sequence: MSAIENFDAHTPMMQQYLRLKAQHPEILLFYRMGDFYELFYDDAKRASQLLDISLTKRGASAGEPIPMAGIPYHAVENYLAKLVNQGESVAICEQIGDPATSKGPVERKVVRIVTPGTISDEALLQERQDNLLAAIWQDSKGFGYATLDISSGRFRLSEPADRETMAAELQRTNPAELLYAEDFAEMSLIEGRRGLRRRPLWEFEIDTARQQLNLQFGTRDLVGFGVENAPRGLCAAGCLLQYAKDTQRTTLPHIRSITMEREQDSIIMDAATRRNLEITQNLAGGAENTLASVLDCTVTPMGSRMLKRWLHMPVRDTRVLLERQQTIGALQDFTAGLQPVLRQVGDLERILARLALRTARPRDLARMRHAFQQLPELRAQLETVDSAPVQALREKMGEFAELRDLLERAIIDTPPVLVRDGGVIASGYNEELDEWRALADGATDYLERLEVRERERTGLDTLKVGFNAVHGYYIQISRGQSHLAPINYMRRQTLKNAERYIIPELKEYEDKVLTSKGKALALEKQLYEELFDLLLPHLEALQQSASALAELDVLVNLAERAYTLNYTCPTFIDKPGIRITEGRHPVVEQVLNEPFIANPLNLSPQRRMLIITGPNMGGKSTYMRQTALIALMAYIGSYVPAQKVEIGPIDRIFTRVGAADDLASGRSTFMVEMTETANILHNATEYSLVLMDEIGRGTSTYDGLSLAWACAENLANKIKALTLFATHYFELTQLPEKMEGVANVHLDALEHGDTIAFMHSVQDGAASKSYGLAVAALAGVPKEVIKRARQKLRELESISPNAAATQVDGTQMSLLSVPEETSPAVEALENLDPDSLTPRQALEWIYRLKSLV

[2] = target: MSH2 del2-7;MSH6 WT (MutSα) (human;human, UniProt P43246;P52701 1-934;1-1360, del2-7|)
[3] = target: MSH2 WT (MutSα);MSH6 WT (MutSα) (human;human, UniProt P43246;P52701 1-934;1-1360, |)
[4] = target: MSH2 dMBD2;MSH6 WT (MutSα) (human;human, UniProt P43246;P52701 125-934;1-1360, |)
[5] = target: T2, MutS D835R (Escherichia coli, UniProt P23909 1-853, D835R)
T2 sequence: T1 sequence with D835R

B1: 21 bp GT mismatch (SPR) (dsDNA)
DNA 1: TTTTTTTTTTTTTTTTTTTTAGTCGCCAGGGACCAGTGTCA
DNA 2: TGACACTGGTCTCTGGCGACT
[1]
  binding result: binds
[2]
  Kd: 3.28 ± 0.12 nM
[3]
  Kd: 1.08 ± 0.02 nM
[4]
  Kd: 16.4 ± 0.86 nM
[5]
  Kd: 30.85 ± 0.08 nM
